Data published in publication PMC10786891, “Massively parallel profiling of RNA-targeting CRISPR-Cas13d”.
Changes are numbered by the printed parent chain. Names may count otherwise.

B1: target 1 insC 3' of 15,insA 3' of 7 (mixed)
RNA 1: CACCCGUGCAAAAAUGCAGGGGUCUAAAACUGAGCGGAUAACCUCUCUAUGG
RNA 2: GGGAAUGGAUCCACAUCUACGAAUUCGUACCAUAGAGCAGGUUAUCACGCUCACCGAGAUCGGAAGAGCACACGU
B2: target 1 insG 3' of 14,insU 3' of 5 (mixed)
RNA 1: B1 RNA 1
RNA 2: B1 RNA 2 with C38A, A39G, A47C, C48G, G49U
B3: target 1 complement block 7-10 (mixed)
RNA 1: B1 RNA 1
RNA 2: GGGAAUGGAUCCACAUCUACGAAUUCGUACCAUAGAGAGGUAUAGCGCUCACCGAGAUCGGAAGAGCACACGU
B4: target 1 U10A,G17U (mixed)
RNA 1: B1 RNA 1
RNA 2: B3 RNA 2 with G35U, U43A, A44U, G45C
B5: target 1 insU 3' of 22,insG 3' of 4 (mixed)
RNA 1: B1 RNA 1
RNA 2: GGGAAUGGAUCCACAUCUACGAAUUCGUACUCAUAGAGAGGUUAUCCGCGUCACCGAGAUCGGAAGAGCACACGU
B6: target 1 C4A,A9C (mixed)
RNA 1: B1 RNA 1
RNA 2: B3 RNA 2 with A42U, U43C, A44U, G45C, C48A
B7: target 1 insA 3' of 8,insU 3' of 7 (mixed)
RNA 1: B1 RNA 1
RNA 2: B1 RNA 2 with C38A, A39G, G41U, U43A, A44U, U45A, A47U
B8: target 1 insU 3' of 9,insC 3' of 9 (mixed)
RNA 1: B1 RNA 1
RNA 2: B1 RNA 2 with C38A, A39G, G41U, U43A, A44U, U45C, C46U, A47C
B9: target 1 U19G,A20U (mixed)
RNA 1: B1 RNA 1
RNA 2: B3 RNA 2 with A32U, U33G, A42U, U43A, A44U, G45C
B10: target 1 insC 3' of 22,insU 3' of 12 (mixed)
RNA 1: B1 RNA 1
RNA 2: B5 RNA 2 with U31C, A44U, U45A, C46U, G48C, C49G, G50C
B11: target 1 C6U,G13A (mixed)
RNA 1: B1 RNA 1
RNA 2: B3 RNA 2 with G39A, A42U, U43A, A44U, G45C, C46U
B12: target 1 insC 3' of 22,insA 3' of 15 (mixed)
RNA 1: B1 RNA 1
RNA 2: B5 RNA 2 with U31C, G40A, U42G, A44U, U45A, C46U, G48C, C49G, G50C
B13: target 1 A1C,U8G (mixed)
RNA 1: B1 RNA 1
RNA 2: B3 RNA 2 with A42U, U43A, A44G, G45C, A51C
B14: target 1 insU 3' of 7,insC 3' of 3 (mixed)
RNA 1: B1 RNA 1
RNA 2: GGGAAUGGAUCCACAUCUACGAAUUCGUACCAUAGAGAGGUUAUCUCGCUCCACCGAGAUCGGAAGAGCACACGU
B15: target 1 insU 3' of 18,insC 3' of 10 (mixed)
RNA 1: B1 RNA 1
RNA 2: B1 RNA 2 with G35U, A36G, G37A, C38G, A44C, U45A, C46U, A47C
B16: target 1 U3G,C4U (mixed)
RNA 1: B1 RNA 1
RNA 2: B3 RNA 2 with A42U, U43A, A44U, G45C, C48U, U49G
B17: target 1 insA 3' of 17,insC 3' of 16 (mixed)
RNA 1: B1 RNA 1
RNA 2: B1 RNA 2 with G37A, A39G, G40A, U42G, A44U, U45A, C46U, A47C
B18: target 1 insU 3' of 9,insU 3' of 4 (mixed)
RNA 1: B1 RNA 1
RNA 2: B14 RNA 2 with C45U, U46C, C51U
B19: target 1 C2A,A9G (mixed)
RNA 1: B1 RNA 1
RNA 2: B3 RNA 2 with A42U, U43G, A44U, G45C, C50A
B20: target 1 U11C,C22A (mixed)
RNA 1: B1 RNA 1
RNA 2: B3 RNA 2 with C30A, U41C, A42U, U43A, A44U, G45C
B21: target 1 insC 3' of 14,insC 3' of 10 (mixed)
RNA 1: B1 RNA 1
RNA 2: B1 RNA 2 with C38A, A39C, A44C, U45A, C46U, A47C
B22: target 1 insU 3' of 5,insU 3' of 2 (mixed)
RNA 1: B1 RNA 1
RNA 2: B14 RNA 2 with U46C, C47G, G48U, C52U
B23: target 1 C7A,A14U (mixed)
RNA 1: B1 RNA 1
RNA 2: B3 RNA 2 with A38U, A42U, U43A, A44U, G45A
B24: target 1 insA 3' of 17,insG 3' of 7 (mixed)
RNA 1: B1 RNA 1
RNA 2: B1 RNA 2 with G37A, C38G, A47G
B25: target 1 insG 3' of 18,insG 3' of 18 (mixed)
RNA 1: B1 RNA 1
RNA 2: B1 RNA 2 with A36G, C38A, A39G, G40A, U42G, A44U, U45A, C46U, A47C
B26: target 1 U11G,A16G (mixed)
RNA 1: B1 RNA 1
RNA 2: B3 RNA 2 with A36G, U41G, A42U, U43A, A44U, G45C
B27: target 1 insC 3' of 10,insU 3' of 4 (mixed)
RNA 1: B1 RNA 1
RNA 2: B14 RNA 2 with A43C, U44A, C45U, U46C, C51U
B28: target 1 insU 3' of 6,insA 3' of 3 (mixed)
RNA 1: B1 RNA 1
RNA 2: B14 RNA 2 with U46C, C47U, C51A
B29: target 1 A1G,U8G (mixed)
RNA 1: B1 RNA 1
RNA 2: B3 RNA 2 with A42U, U43A, A44G, G45C, A51G

Target: T1, EsCas13d, nuclease-dead (Eubacterium siraeum, UniProt B0MS50, R295A;H300A;R849A;H854A)
T1 sequence: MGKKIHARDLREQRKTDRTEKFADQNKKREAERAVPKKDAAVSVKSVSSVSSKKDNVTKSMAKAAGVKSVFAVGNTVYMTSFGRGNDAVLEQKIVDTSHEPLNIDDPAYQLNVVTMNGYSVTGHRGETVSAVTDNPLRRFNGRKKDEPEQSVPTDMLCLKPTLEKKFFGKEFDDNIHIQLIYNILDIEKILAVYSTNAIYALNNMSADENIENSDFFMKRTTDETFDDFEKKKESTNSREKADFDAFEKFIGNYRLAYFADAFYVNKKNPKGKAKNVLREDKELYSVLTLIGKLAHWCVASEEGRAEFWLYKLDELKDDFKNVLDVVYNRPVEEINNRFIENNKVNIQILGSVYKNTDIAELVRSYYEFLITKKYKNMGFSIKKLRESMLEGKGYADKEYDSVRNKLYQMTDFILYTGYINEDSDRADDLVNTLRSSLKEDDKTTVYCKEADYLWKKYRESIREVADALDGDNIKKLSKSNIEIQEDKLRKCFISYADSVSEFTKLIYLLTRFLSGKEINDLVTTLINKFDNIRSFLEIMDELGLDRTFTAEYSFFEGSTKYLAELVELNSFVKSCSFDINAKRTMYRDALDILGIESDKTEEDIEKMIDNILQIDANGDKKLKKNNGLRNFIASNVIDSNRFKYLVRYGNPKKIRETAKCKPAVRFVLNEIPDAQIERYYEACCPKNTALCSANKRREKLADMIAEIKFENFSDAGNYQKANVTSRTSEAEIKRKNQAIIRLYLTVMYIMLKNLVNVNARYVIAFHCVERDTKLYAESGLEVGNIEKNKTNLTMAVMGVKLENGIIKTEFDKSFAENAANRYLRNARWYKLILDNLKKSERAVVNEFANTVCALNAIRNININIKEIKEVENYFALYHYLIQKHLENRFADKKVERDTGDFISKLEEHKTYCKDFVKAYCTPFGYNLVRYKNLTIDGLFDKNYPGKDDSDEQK
Assay: crRNA (strand 1, pre-loaded); Mg2+; 40 mM Tris-HCl pH 7.5, 150 mM NaCl, 6 mM MgCl2, 1 mM DTT, 0.1% Tween-20, 0.2 mg/ml BSA; 25 C; 10 min per concentration, then washed
Conditions: tags: His6-TwinStrep-SUMO cleaved; N-terminal SNAP kept (SNAP-Surface 488); label: 3' end held by stalled T7 RNA polymerase

Binder | Kd [nM]
B1 | 12.6 ± 1
B2 | 29.6 ± 2.1
B3 | 11.7 ± 0.7
B4 | 37.2 ± 3.2
B5 | 22.3 ± 1.5
B6 | 7.1 ± 0.7
B7 | 12.8 ± 0.5
B8 | 21.5 ± 1.6
B9 | 96 ± 35
B10 | 16.8 ± 1.2
B11 | 9 ± 1.1
B12 | 10.9 ± 0.8
B13 | 22.4 ± 1.7
B14 | 15.6 ± 0.7
B15 | 65 ± 24
B16 | 7.2 ± 0.6
B17 | 11.6 ± 0.7
B18 | 14.3 ± 1.2
B19 | 11.7 ± 0.9
B20 | 21.3 ± 1.5
B21 | 55 ± 22
B22 | 14.8 ± 1.3
B23 | 39 ± 3.5
B24 | 11.5 ± 0.6
B25 | 48 ± 4
B26 | 53 ± 6
B27 | 12.7 ± 1.1
B28 | 8.07 ± 0.3
B29 | 24.5 ± 1.8
